According to the supplement of paper PMC11246515:
± gives the standard deviation of the averaged measurements.

Experiment: total protein half-life in vivo (active degradation + dilution); higher = more stable protein
[1] = E. coli NCM3722 delta-clpP delta-lon delta-hslV, growth: N-lim chemostat, doubling time 6 h
[2] = E. coli NCM3722 delta-clpP, growth: N-lim chemostat, doubling time 6 h
[3] = E. coli NCM3722 delta-hslV, growth: N-lim chemostat, doubling time 6 h
[4] = E. coli NCM3722 delta-lon, growth: N-lim chemostat, doubling time 6 h
[5] = E. coli NCM3722 delta-smpB, growth: N-lim chemostat, doubling time 6 h
[6] = wild type E. coli NCM3722, growth: C-lim chemostat, doubling time 3 h
[7] = wild type E. coli NCM3722, growth: C-lim chemostat, doubling time 6 h
[8] = wild type E. coli NCM3722, growth: C-lim chemostat, doubling time 12 h
[9] = wild type E. coli NCM3722, growth: N-lim chemostat, doubling time 6 h
[10] = wild type E. coli NCM3722, growth: N-lim chemostat, doubling time 12 h
[11] = wild type E. coli NCM3722, growth: P-lim chemostat, doubling time 6 h
[12] = wild type E. coli NCM3722, growth: P-lim chemostat, doubling time 12 h

## MRVSRSLTIKQMAMVAAVVLVFVFIFCTVLLFHLVQQNRYNTATQLESIARSVREPLSSAILKGDIPEAEAILASIKPAGVVSRADVVLPNQFQALRKSFIPERPVPVMVTRLFELPVQISLGVYSLERPANPQPIAYLVLQADSFRMYKFVMSTLSTLVTIYLLLSLILTVAISWCINRLILHPLRNIARELNAIPAKELVGHQLALPRLHQDDEIGMLVRSYNLNQQLLQRHYEEQNENAMRFPVSDLPNKALLMEMLEQVVARKQTTALMIITCETLRDTAGVLKEAQREILLLTLVEKLKSVLSPRMILAQISGYDFAVIANGVQEPWHAITLGQQVLTIMSERLPIERIQLRPHCSIGVAMFYGDLTAEQLYSRAISAAFTARHKGKNQIQFFDPQQMEAAQKRLTEESDILNALENHQFAIWLQPQVEMTSGKLVSAEVLLRIQQPDGSWDLPDGLIDRIECCGLMVTVGHWVLEESCRLLAAWQERGIMLPLSVNLSALQLMHPNMVADMLELLTRYRIQPGTLILEVTESRRIDDPHAAVAILRPLRNAGVRVALDDFGMGYAGLRQLQHMKSLPIDVLKIDKMFVEGLPGDSSMIAAIIMLAQSLNLQMIAEGVETEAQRDWLAKAGVGIAQGFLFARPLPIEIFEESYLEEK
[1]
  total protein half-life in vivo: 6.54 ± 0.19 h
[2]
  total protein half-life in vivo: 6.31 ± 0.11 h
[3]
  total protein half-life in vivo: 6.2 ± 0.23 h
[4]
  total protein half-life in vivo: 5.77 ± 0.32 h
[5]
  total protein half-life in vivo: 6.1 ± 0.082 h
[6]
  total protein half-life in vivo: 2.998 ± 0.0049 h
[7]
  total protein half-life in vivo: 5.7 ± 1.1 h
[8]
  total protein half-life in vivo: 13 ± 0.22 h
[9]
  total protein half-life in vivo: 6.054 ± 0.008 h
[10]
  total protein half-life in vivo: 12.3 ± 0.63 h
[11]
  total protein half-life in vivo: 6.161 ± 0.035 h
[12]
  total protein half-life in vivo: 12.5 ± 0.55 h

## MRVVILGSGVVGVASAWYLNQAGHEVTVIDREPGAALETSAANAGQISPGYAAPWAAPGVPLKAIKWMFQRHAPLAVRLDGTQFQLKWMWQMLRNCDTSHYMENKGRMVRLAEYSRDCLKALRAETNIQYEGRQGGTLQLFRTEQQYENATRDIAVLEDAGVPYQLLESSRLAEVEPALAEVAHKLTGGLQLPNDETGDCQLFTQNLARMAEQAGVKFRFNTPVDQLLCDGEQIYGVKCGDEVIKADAYVMAFGSYSTAMLKGIVDIPVYPLKGYSLTIPIAQEDGAPVSTILDETYKIAITRFDNRIRVGGMAEIVGFNTELLQPRRETLEMVVRDLYPRGGHVEQATFWTGLRPMTPDGTPVVGRTRFKNLWLNTGHGTLGWTMACGSGQLLSDLLSGRTPAIPYEDLSVARYSRGFTPSRPGHLHGAHS [P0A6J5]
[1]
  total protein half-life in vivo: 2.86 ± 0.088 h
[2]
  total protein half-life in vivo: 1.88 ± 0.14 h
[3]
  total protein half-life in vivo: 2.16 ± 0.24 h
[4]
  total protein half-life in vivo: 2.06 h
[5]
  total protein half-life in vivo: 1.95 ± 0.12 h
[6]
  total protein half-life in vivo: 1.01 ± 0.16 h
[7]
  total protein half-life in vivo: 1.65 ± 0.11 h
[8]
  total protein half-life in vivo: 2.68 ± 0.58 h
[9]
  total protein half-life in vivo: 2.04 ± 0.17 h
[10]
  total protein half-life in vivo: 3.35 ± 0.27 h
[11]
  total protein half-life in vivo: 2.27 ± 0.23 h
[12]
  total protein half-life in vivo: 4.77 ± 0.97 h

## MRWILFILFCLLGAPAHAVSIPGVTTTTTTDSTTEPAPEPDIEQKKAAYGALADVLDNDTSRKELIDQLRTVAATPPAEPVPKIVPPTLVEEQTVLQKVTEVSRHYGEALSARFGQLYRNITGSPHKPFNPQTFSNALTHFSMLAVLVFGFYWLIRLCALPLYRKMGQWARQKNRERSNWLQLPAMIIGAFIIDLLLLALTLFVGQVLSDNLNAGSRTIAFQQSLFLNAFALIEFFKAVLRLIFCPNVAELRPFTIQDESARYWSRRLSWLSSLIGYGLIVAVPIISNQVNVQIGALANVIIMLCMTVWALYLIFRNKKEITQHLLNFAEHSLAFFSLFIRAFALVWHWLASAYFIVLFFFSLFDPGNSLKFMMGATVRSLAIIGIAAFVSGMFSRWLAKTITLSPHTQRNYPELQKRLNGWLSAALKTARILTVCVAVMLLLSAWGLFDFWNWLQNGAGQKTVDILIRIALILFFSAVGWTVLASLIENRLASDIHGRPLPSARTRTLLTLFRNALAVIISTITIMIVLSEIGVNIAPLLAGAGALGLAISFGSQTLVKDIITGVFIQFENGMNTGDLVTIGPLTGTVERMSIRSVGVRQDTGAYHIIPWSSITTFANFVRGIGSVVANYDVDRHEDADKANQALKDAVAELMENEEIRGLIIGEPNFAGIVGLSNTAFTLRVSFTTLPLKQWTVRFALDSQVKKHFDLAGVRAPVQTYQVLPAPGATPAEPLPPGEPTL
[1]
  total protein half-life in vivo: 4.93 ± 1 h
[2]
  total protein half-life in vivo: 6.1 ± 0.28 h
[4]
  total protein half-life in vivo: 5.15 ± 0.43 h
[7]
  total protein half-life in vivo: 2.55 ± 2 h
[8]
  total protein half-life in vivo: 6.41 ± 4.3 h
[9]
  total protein half-life in vivo: 4.92 h
[10]
  total protein half-life in vivo: 9.64 ± 0.63 h
[11]
  total protein half-life in vivo: 6.83 ± 0.65 h
[12]
  total protein half-life in vivo: 13 ± 1.4 h

## MRYIRQLCCVSLLCLSGSAVAANVRLQVEGLSGQLEKNVRAQLSTIESDEVTPDRRFRARVDDAIREGLKALGYYQPTIEFDLRPPPKKGRQVLIAKVTPGVPVLIGGTDVVLRGGARTDKDYLKLLDTRPAIGTVLNQGDYENFKKSLTSIALRKGYFDSEFTKAQLGIALGLHKAFWDIDYNSGERYRFGHVTFEGSQIRDEYLQNLVPFKEGDEYESKDLAELNRRLSATGWFNSVVVAPQFDKARETKVLPLTGVVSPRTENTIETGVGYSTDVGPRVKATWKKPWMNSYGHSLTTSTSISAPEQTLDFSYKMPLLKNPLEQYYLVQGGFKRTDLNDTESDSTTLVASRYWDLSSGWQRAINLRWSLDHFTQGEITNTTMLFYPGVMISRTRSRGGLMPTWGDSQRYSIDYSNTAWGSDVDFSVFQAQNVWIRTLYDRHRFVTRGTLGWIETGDFDKVPPDLRFFAGGDRSIRGYKYKSIAPKYANGDLKGASKLITGSLEYQYNVTGKWWGAVFVDSGEAVSDIRRSDFKTGTGVGVRWESPVGPIKLDFAVPVADKDEHGLQFYIGLGPEL [P0ADE4]
[2]
  total protein half-life in vivo: 6.81 ± 0.13 h
[3]
  total protein half-life in vivo: 6.538 ± 0.011 h
[4]
  total protein half-life in vivo: 6.38 ± 0.61 h
[5]
  total protein half-life in vivo: 5.85 ± 0.15 h
[6]
  total protein half-life in vivo: 3.013 ± 0.0066 h
[7]
  total protein half-life in vivo: 6.21 ± 0.37 h
[8]
  total protein half-life in vivo: 12.8 ± 0.55 h
[9]
  total protein half-life in vivo: 6.59 ± 1 h
[10]
  total protein half-life in vivo: 13.5 ± 0.56 h
[11]
  total protein half-life in vivo: 6.31 ± 0.16 h
[12]
  total protein half-life in vivo: 13.8 ± 0.96 h

## MRYLNTKNIIAAGVLLSCMSSIAWGAIIPDRTRIIMNESDKGEALKLTNQSKNLPYLAQTWIEDTKGNKSRDFIVTVPPMVRLNPSEQIQIRMITQEKIAQLPKDRETLFYFNVREIPPKTDKKNVMQVTMQHALKLFWRPKAIELEDDGVMTYEKVEIIRRNDGSIRFNNKMPYHVTLGYIGTNGVTMLPQTQSLMVTPFSYANTQFKNVPSTFQVGYINDFGGLSFYEINCPVVNNICNISVANRDQ
[5]
  total protein half-life in vivo: 5.38 h
[9]
  total protein half-life in vivo: 5.39 h
[10]
  total protein half-life in vivo: 11.3 h
[11]
  total protein half-life in vivo: 5.6 h
[12]
  total protein half-life in vivo: 14.3 h

## MSAGKLPEGWVIAPVSTVTTLIRGVTYKKEQAINYLKDDYLPLIRANNIQNGKFDTTDLVFVPKNLVKESQKISPEDIVIAMSSGSKSVVGKSAHQHLPFECSFGAFCGVLRPEKLIFSGFIAHFTKSSLYRNKISSLSAGANINNIKPASFDLINIPIPPLAEQKIIAEKLDTLLAQVDSTKARFEQIPQILKRFRQAVLGGAVNGKLTEKWRNFEPQHSVFKKLNFESILTELRNGLSSKPNESGVGHPILRISSVRAGHVDQNDIRFLECSESELNRHKLQDGDLLFTRYNGSLEFVGVCGLLKKLQHQNLLYPDKLIRARLTKDALPEYIEIFFSSPSARNAMMNCVKTTSGQKGISGKDIKSQVVLLPPVKEQAEIVRRVEQLFAYADTIEKQVNNALARVNNLTQSILAKAFRGELTAQWRAENPDLISGENSAAALLEKIKAERAASGGKKASRKKS
[1]
  total protein half-life in vivo: 5.47 ± 0.81 h
[2]
  total protein half-life in vivo: 5.86 ± 0.12 h
[3]
  total protein half-life in vivo: 5.48 ± 0.098 h
[4]
  total protein half-life in vivo: 6.44 ± 0.56 h
[5]
  total protein half-life in vivo: 5.68 ± 0.34 h
[6]
  total protein half-life in vivo: 3.08 ± 0.36 h
[7]
  total protein half-life in vivo: 6.03 ± 0.34 h
[8]
  total protein half-life in vivo: 10.9 ± 0.68 h
[9]
  total protein half-life in vivo: 5.84 ± 0.44 h
[10]
  total protein half-life in vivo: 10.7 ± 0.57 h
[11]
  total protein half-life in vivo: 5.46 ± 0.33 h
[12]
  total protein half-life in vivo: 10.9 ± 0.15 h

## MSAIAPGMILIAYLCGSISSAILVCRLCGLPDPRTSGSGNPGATNVLRIGGKGAAVAVLIFDVLKGMLPVWGAYELGVSPFWLGLIAIAACLGHIWPVFFGFKGGKGVATAFGAIAPIGWDLTGVMAGTWLLTVLLSGYSSLGAIVSALIAPFYVWWFKPQFTFPVSMLSCLILLRHHDNIQRLWRRQETKIWTKFKRKREKDPE
[1]
  total protein half-life in vivo: 6.82 h
[2]
  total protein half-life in vivo: 6.64 h
[3]
  total protein half-life in vivo: > 8 h
[4]
  total protein half-life in vivo: 7.06 h
[5]
  total protein half-life in vivo: 5.72 h
[7]
  total protein half-life in vivo: 6.29 h
[9]
  total protein half-life in vivo: 6.93 ± 0.78 h
[10]
  total protein half-life in vivo: 9.94 h
[11]
  total protein half-life in vivo: 6.01 ± 0.4 h
[12]
  total protein half-life in vivo: 11 h
